The values that follow come from patent KR20220116962A (dated 2022).

In assay [1] the target is T1, GPR87(N)-GST (인간 GPR87 N-말단 세포외부위 영역과 GST 융합 항원) (human).
T1 construct: also called GPR87-GST
As to the kind of experiment: single-clone phage ELISA after 4 rounds of biopanning. In general terms: In an ELISA, binding on a coated surface is turned into a signal by an enzyme label.

Assay [2] concerns the target T2, GPR87(N)-Streptavidin (인간 GPR87 N-말단 세포외부위 영역과 STV 융합 항원) (human).
T2 construct: Purified on Ni-NTA, so a His tag is implied but not described; also called GPR87-STV
T2 chain: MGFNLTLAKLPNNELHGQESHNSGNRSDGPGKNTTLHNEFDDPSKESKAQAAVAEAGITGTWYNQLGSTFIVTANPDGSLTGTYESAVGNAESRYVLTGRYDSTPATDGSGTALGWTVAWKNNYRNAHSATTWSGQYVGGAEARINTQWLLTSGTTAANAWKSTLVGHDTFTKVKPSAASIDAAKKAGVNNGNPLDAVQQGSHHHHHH
The description is as above.

Assay [3] addresses T1, GPR87(N)-GST (인간 GPR87 N-말단 세포외부위 영역과 …). As to the kind of experiment: ELISA, antigen coated, IgG titrated; apparent equilibrium dissociation constant.
Assay [4] concerns the target T2, GPR87(N)-Streptavidin (인간 GPR87 N-말단 …). Described as above.

B1: B1 (scFv), phage-displayed clone (scFv)
scFv: EVQLVESGGGLVQPGRSLRLSCKASGFNFDEYALSWVRQAPGKGLEWVGFIRSKAYRETTEYAASVKGRCTISRDDSKSIAYLLMNSLRAEDTAVYYCARGHTPQRPYFDEWGQGTLVTVSSGGGSSGGGGSGGGGSGGGGSDIQMTQSPSFLSASVGDRITITCRASQSVGTYVNWYQQKLGKAPKLLIYTASTLQSGVPARFSGSGSGTEFTLTINGLQPEDFATYYCQQSYRPHFLTFGGGTQLTVLG
Regarding B1, the binding result in assay [1] and in assay [2] was “binds” each time.

B2: A5 (scFv), phage-displayed clone (scFv)
scFv: QVQLVQSGPGLVKPSETLSLTCSVSGGSMTSYYWSWVRQPPGKGLEWMGYVFHSGITNYSPSLKSRVTMSVDTSKNQFSLKLKSVTAVDTAVYYCAKKSGTSKKPIDYWGQGTTVTVSSGGGSSGGGGSGGGGSGGGGSDIVMTQSPSSLSASVGDRITITCRASQSVGTYVNWYQHKPGKAPKLLIYDASNLETGVPSRFSGSGSVTDFTLTITNLQPEDSATYYCLQHKNYPLTFGGGTKVEIKR
For the molecule B2, the binding result in assay [1] and in assay [2] was “binds” in each case.

B3: 단일클론항체 A5 (IgG) (antibody, V domains shown)
VH: QVQLVQSGPGLVKPSETLSLTCSVSGGSMTSYYWSWVRQPPGKGLEWMGYVFHSGITNYSPSLKSRVTMSVDTSKNQFSLKLKSVTAVDTAVYYCAKKSGTSKKPIDYWGQGTTVTVSS
VL: DIVMTQSPSSLSASVGDRITITCRASQSVGTYVNWYQHKPGKAPKLLIYDASNLETGVPSRFSGSGSVTDFTLTITNLQPEDSATYYCLQHKNYPLTFGGGTKVEIKR
notes: also called A5 항체
Regarding B3, the figures for the Kd in assay [3] and in assay [4] were 13.3 nM and 14.7 nM, respectively.

B4: 단일클론항체 B1 (IgG) (antibody, V domains shown)
VH: EVQLVESGGGLVQPGRSLRLSCKASGFNFDEYALSWVRQAPGKGLEWVGFIRSKAYRETTEYAASVKGRCTISRDDSKSIAYLLMNSLRAEDTAVYYCARGHTPQRPYFDEWGQGTLVTVSS
VL: DIQMTQSPSFLSASVGDRITITCRASQSVGTYVNWYQQKLGKAPKLLIYTASTLQSGVPARFSGSGSGTEFTLTINGLQPEDFATYYCQQSYRPHFLTFGGGTQLTVLG
notes: also called B1 항체
For the molecule B4, the Kd in assay [3] came out at 18.1 nM; in assay [4], 19.9 nM.
